Measurements published in the DeepSol protein solubility set.

Experiment: soluble on expression in E. coli; label from the status in PepcDB or PDB records

Row | Sequence | soluble on expression in E. coli
1 | MVSAPSIDTPSATTFDFDSSVFKKEKVTLSGHDEYIVRGGRNLFPLLPDAFKGIKQIGVIGWGSQAPAQAQNLKDSLTEAKSDVVVKIGLRKGSNSFAEARAAGFSEENGTLGDMWETISGSDLVLLLISDSAQADNYEKVFSHMKPNSILGLSHGFLLGHLQSLGQDFPKNISVIAVCPKGMGPSVRRLYVQGKEVNGAGINSSFAVHQDVDGRATDVALGWSIALGSPFTFATTLEQEYKSDIFGERGILLGAVHGIVECLFRRYTESGMSEDLAYKNTVECITGVISKTISTKGMLALYNSLSEEGKKDFQAAYSASYYPSMDILYECYEDVASGSEIRSVVLAGRRFYEKEGLPAFPMGKIDQTRMWKVGEKVRSVRPAGDLGPLYPFTAGVYVALMMAQIEILRKKGHSYSEIINESVIEAVDSLNPFMHARGVSFMVDNCSTTARLGSRKWAPRFDYILSQQALVAVDNGAPINQDLISNFLSDPVHEAIGVCAQLRPSVDISVTADADFVRPELRQA | soluble
2 | MAGDPMAEAGNKTQNQSATEVNASPLQPAEYFIYHNLMNDKGLIKTDFSDQPSYLSESLGLWMEFLLSKNDAPHFQDQYQHLTDSFLMSNHLVTWKIQNGQASGTNALIDDMRIMLSLDQAAAKWGRSDYAQTARDIGTSLKTYNMNNGFFTDFYDSQAASKDVTLSYVMPDALAVLKKNGIIDEETEQRNANVLYSAPLKNGFLPKTYSSETKEYTYDSEINLIDQLYAAWHLPEGDEKASVLADWIKQEFQKNGKLYGRYSAYTKEPAVQYESPSVYALAVLFLTKQHENSSVIKAIYDRMNDFEIHDPVKSYYGGYMSGTQTHSFDNLLPLLAERKLFNENIIQLEHHHHHH | soluble
3 | MGSDKIHHHHHHMGTDPIEARFEQLNVWRNGDKRAPHKPLLILLALASWQRGAREMRFAECEQKLGELIREFGPAAKAVHPEYPFWRLQNDGLWVVEADQEMRTRQSNSDPLKSELRAAGARGHFFADVAEELERRPALIGRVAQRVLDAHFPETLHEDILAAVGLEVSEETESTTRRRRDPNFRNAVLQAYQYRCAVCELDLRIGSITVGLEAAHVKWHQARGPDAVHNGVALCSLHHKLFDLGAFHIGADRRILVSEQVHGTSRFEEVLLRHHGALALEPVRSEHKVLRDFVGWHFDQVFKKEARPAT | not soluble
4 | MKDSLQTIGVFVRPTHYQNPLFEKLEQAKEWVLKLLEDEGFESFMIDSLDGAKDARLIEKADAFLCLGGDGTILGALRMTHSYNKPCFGVRIGNLGFLSAVELNGLKDFLQDFKQDRIKLEEHLALEGRIGKTSFYAINEIVIAKKKALGVLDIKAYAGHTPFNTYKGDGLIIATPLGSTAYNLSAHGPIVHALSQSYILTPLCDFSLTQRPLVLGAEFCLNFCAHEDALVVIDGQATYDLKANQPLYIQKSPTTTKLLQKNSRDYFKVLKEKLLWGESPSKKRLEHHHHHH | soluble
5 | MKKLFFIMAMSVCAFTAQAQTTSGIRVGLNMTSATGKYNDLMADQDYNNKSYMGYSIHYFIDVPVIGNFSIQPAVGLSMKGITYEYDKFTTKKSHRLDLDSYKKYDVTESRGTSVTQKHNLGYLDVPILFAYALPLSESFRVQLGVGPYFSYGLFGKFKYESDKYLTVSPDKYGENKHTITKDDYPSFGKNDDADDPKGNINRFDWGIAVQGSIYWKRLFLNVAYQKGLKSANITDEKNEGKDKLALSNLSLGLGFIF | not soluble
6 | MGSDKIHHHHHHMPSIFEKYHLKQVINTSGRMTALGVSTPRPEVVEAAMAGMNQYFEMKDLVNKTGEYIAKLLDVEGATVVSCASAGIAQSVAAVLVKDSDWLLENLHVTPIENNEIVLPKGHNVNFGAPVGTMVALGGGKLVEAGYANECSAQQLAAAITPRTAAILYIKSHHCVQKSMLNVAQAAEVARQHNVPLIVDAAAEEDLQCYYRMGADLVIYSGAKAIEGPTSGLVIGKTQYVEWVKRQSMGIGRAMKVGKEGILGLTCAIEHYLTASKESGQQMVAKMTPFIEQLNTLNGVTARVVWDSAGRDIARAEIKFDEATTGVKTGDLVNALKQGEYAIYFRGYKANEGIIEADVRSVNAQQLEVVARRIAEVLNKEKQA | not soluble
7 | MPMTLGYWNIRGLAHSIRLLLEYTDSSYEEKKYTMGDAPDYDRSQWLNEKFKLGLDFPNLPYLIDGTHKITQSNAILRYIARKHNLCGESEKEQIREDILENQFMDSRMQLAKLCYDPDFEKLKPEYLQALPEMLKLYSQFLGKQPWFLGDKITFVDFIAYDVLERNQVFEPSCLDAFPNLKDFISRFEGLEKISAYMKSSRFLPRPVFSKMAVWGNK | soluble
8 | MIDLAPLVRRLAGTPLAEWANGLQAQLDTKMSKGHGDLQRWQSALDALPALQPEKVDLTDSFTLETECDGETRTVLRKALLGLSPWRKGPFNVFGVHIDTEWRSDWKWSRVSPHLDLKGKRVLDVGCGNGYYQWRMLGAGADSVIGVDPNWLFFCQFQAMQRYLPDLPAWHLPFALEDLPANLEGFDTVFSMGVLYHRKSPIDHLLALKDCLVKGGELVMETLVIPGDVHQVLVPEDRYAQMRNVWFLPSVPALELWMRRAGFTDVRCVDVSHTTVEEQRSTEWMRFQSLGDYLDPNDHSKTVEGLPAPMRAVIVGRKP | not soluble
9 | MGKVTIIAGGIKTESRLTGLTQLAANELVTNGLEVNIIEVHKINAEALVTADFAHSDIQLANSEIESSSGVIIATPIFKAAYSGVLKAYLDLLPLKALKGKVVLPLGLGGSNGHLLALQYALDPVLKELGAETILKGQFTVDKQIERLGDGLYEIESSAKERLDIALGQFISLLNQQSVEVLEHHHHHH | soluble
10 | MGSDKIHHHHHHVQDKNFDKLAHKFAKNIYGTPKGEIRAAVLWRDLSSALAPFGDKKLRILDAGGGFGFFSQKLARLGHEVVLCDISQEMLIQAQAHIDASTEPLNIELIHAPIQALSVEQNGVFDLILCHAVVEWLTDAQRTMEGLLTMLKPNGLFSLMFYNKEAMRFHALISGNFDYVAADLKVKKKVRLTPTHPLYIQEVKQWFMDWEMTLISQSGVRVIHDYLKKSQAADFDYQKLLQMELEYSQHEPYISLGRYVHFLGISRGT | not soluble
11 | MSHSTYSLSFVASPSEEAQTALKELKAVYSDTPFEEADVIVALGGDGFMLQILNETMNSGKRVYGMNRGSVGFLMNDFRVEGLIQRIAVASGNDFHPLRMTTTDSDGDEFTALAMNEVSLFRQSHQAAKLRVEVDGKVRLEELICDGMMVATPAGSTAYNFSAHGPILPLESPLLALTPVSAFRPRRWRGALLPNKVTVDIHVLERDKRPVNAVADHTEVKSVRHVRIAQSQDRTAKILSDPDRSWSDRVLAEQFNNLEHHHHHH | not soluble
12 | MLIVKTLVIIPTYNEAENIRPLVEDILDRYPEGLELLVIDDSSPDGTAGIVKAIMKNEPRVMLLSRPSKLGLGTAYLTGFRYALERGYERVIEMDADFSHDPASIASLIKAMDGADMVIGSRYMNNTVNVVNWPLSRLILSKSASIYSRWITGMPVSDPTSGFKCISAKALRFIALDRVRSQGYSFQIEIDFRVWKKNLVIHEVPIIFVDRSVGKSKMTRKNIVEAVWMVWWLKFLSIIGRLLEHHHHHH | not soluble
13 | MANDEQQQLLNKIVRDDSQDKQVLLMINGAAGTGKTFLIKLIENSMNRSVRKRVVLMTGSTGKAAKAIGGRTLHCTIGLPNEKPEDLERLKYQAFICVTTRLIIIDEITLLASWHLDATDMVLKRTPKRTDALFGGLSIILVGDLRQLNLGGWRGKKQIDTVFIKVGGYPDPISCQNVCD | not soluble
14 | MNFISLSIFSEHLKSLFPFFTPNPFLNANVAVNDDVSSPNSSVTANYGHGTRACYTHRMGRFLSPKKAFFRFSLIN | not soluble
15 | MKPARLSQTVVAPGCWGELPWGNYYREALEQQLNPWFAKMYGFHLLKIGNLSAEINSEACAVSHQVNVSSQGSPMQVLADPLHLPFADKSVDVCLLAHTLPWCTDPHRLLREADRVLIDDGWLVISGFNPLSLMGLRKLVPVLRKTPPYNSRMFTLMRQLDWLSLLNFEVLHYSRFHVLPWKKQGGRLLNTHIPALGCLQLIVARKRTIPLTLNPLRHNKSKTPIRQTVGATRQYRKPDG | not soluble
16 | VVPAQHRPPDRPGDPAHDPGRGRRLGIDVGAARIGVACSDPDAILATPVETVRRDRSGKHLRRLAALAAELEAVEVIVGLPRTLADRIGRSAQDAIELAEALARRVSPTPVRLADERLTTVSAQRSLRQAGVRASEQRAVIDQAAAVAILQSWLDERLAAMAGTQEGSDA | not soluble
17 | MKAFEFLYEDFQRGLTVVLDKGLPPKFVEDYLKVCGDYIDFVKFGWGTSAVIDRDVVKEKINYYKDWGIKVYPGGTLFEYAYSKGKFDEFLNECEKLGFEAVEISDGSSDISLEERNNAIKRAKDNGFMVLTEVGKKMPDKDKQLTIDDRIKLINFDLDAGADYVIIEGRESGKGKGLFDKEGKVKENELDVLAKNVDINKVIFEAPQKSQQVAFILKFGSSVNLANIAFDEVISLETLRRGLRGDTFGKV | soluble
18 | MKIALSFLFLTSTFSNAGKIGRLQSVAVSGQLNCLGKPAVGVRIDLMESDNNGEETGIIDDNDFMGYTYTDSAGFFNMSGSEVEISGIEPYVNIFHKCNDGLSPCQRQLRVDIPKSATASGPAPNETFSIGTLELSSRKVIGERRSCAYRNLTQTS | not soluble
19 | SLAVDQTRYIFRGDKDALTITVTNNDKERTFGGQAWVDNIVEKDTRPTFVVTPSFFKVKPNGQQTLRIIMASDHLPKDKESVYWLNLQDIPPALEGSGIAVALRTKLKLFYRPKALLEGRKGAEEGISLQSRPDGRTMLVNTTPYIFAIGSLLDGNGKKIATDNGTTQKLLMFMPGDEVQVKGNVVKVDSLNDYGELQTWTINKKKPAAPEAAKAEKADTAEQK | soluble
20 | MGSDKIHHHHHHMEVERISGLKFHKKQDVAIVGAGMTTFKRRLNETGRELSYLAVKQALEEAGLTIDDIEMVVMGSAPDAFDGFHMKGEYLLDGSGGSNRPYMRVFVGGGTGVFAPIAGYWHVASGLADVCLVVCEEKMSSVHPHPQSAFKYIWDPILDRPLNPNLIWIFALEMRRYMHVHNIKHEDIALVSVKNKANALDHPCAQVAEKITVEDVLNSEPMALPVRRLDVSPPSDGAAALIMVAPHIARQLTDNPVWVTGVGWALDTTWWTNRDLYFPRYVAEAAKMAYRMAHITDPRKEIDVAEPYDPFDYKELHHMEGLGLAKKGEAPILTREGVTQRDGDLPTCPSGGLLGVGNPIAATMGVKACEIYWQLAYRAGKRQVAKEVTTGVCQAWGDLMQVGTVMVMSNKR | not soluble
21 | MTDIIIVHSKHGNSKNHWYEWLRHNLTLEGYDVSLFNLEANDHAQIDEWVNEMKQQLHIRKKDTYFVTHGFGSIAALKFLEETHHHIEGFFSIAGFKEDAQDIDEDVDLKGVTIDYDKIKEQVDKFYGLTSKDDQYVSYKETQRLMNSLNGHTRVVEDGGHFLEEEGFVTFTSLINRMQGYMTRLEHHHHHH | not soluble
22 | MGSDKIHHHHHHMGMQARYDGVAVCAPITVPYVRFSPESAHWWTGAALRALGQKTGLNAGDIDGFCFASFSSAPDTVVGMVQHLGLSPRWMDHIPTGGASGIMALRRAARAVQCGDAEVVACVAADTNQIDSYRQTLAGFSRFSQDATYPYGFGGPNATFALITDNFMRQFGTTRETFGKLCVAQRENALSNPLALMKKPLTIEHYMNARPISDPVHLFDCVMPCAGAEAFLVTTPDKAEQLGLSTARILSTIERHNAFADDTVQFRGGWERDQEALWDRAGCGPGDVQCVQVYDDYPVIVAMQLADLGFCSKPGLNDFIAANEFTISGSLPLNTNGGQLSAGQAGAAGGFQNVTEGLRQILQCPLGEQVSDAHRALVSGFGLVNYDRGTCTGAAVLQREALR | not soluble
23 | MSVLEVKGLTKVYQSKGSVATTALNDINFKIEEGEFVGIMGPSGSGKTTLLNLLATIDKQTSGHVLVNGEEINQMRAAKLAEFRRTHLGFIFQDFNLLDTLSIKENIILPLVMAKKSVNEIDAKVLEIAKFLNIEEILNKKVYEVSGGQQQRAAAARAIIHEPTLILADEPTGNLDSKSAKSLMSALQDLHEQKRVTIAMVTHDPVAASYCERILFIRDGEIFSEIHKGRTKQAFFQEILDVLAMLGGEYHELSPARA | not soluble
